Data reported in patent publication US20250332297A1, “DLL3-SPECIFIC BINDING CONSTRUCTS AND THEIR USE IN RADIOTHERAPY” (MOLECULAR PARTNERS AG, priority 2024, published 2025).
Positions count from the first letter of the chain named.

Key:
[1] = molecular target: T1, human DLL3 expressed on HEK293T-huDLL3 cells (Homo sapiens, UniProt Q9NYJ7); assay: Cell binding titration on HEK293T-hDLL3 cells; assay type: cell-based; conditions: presence of human serum albumin (10 μM in FIG. 9 legend, 10 pM in the source), read-out: Cell binding EC50, with HSA
T1 construct: expressed in transfected cells; host or cells: HEK293T-hDLL3
T1 sequence (Q9NYJ7 27-618): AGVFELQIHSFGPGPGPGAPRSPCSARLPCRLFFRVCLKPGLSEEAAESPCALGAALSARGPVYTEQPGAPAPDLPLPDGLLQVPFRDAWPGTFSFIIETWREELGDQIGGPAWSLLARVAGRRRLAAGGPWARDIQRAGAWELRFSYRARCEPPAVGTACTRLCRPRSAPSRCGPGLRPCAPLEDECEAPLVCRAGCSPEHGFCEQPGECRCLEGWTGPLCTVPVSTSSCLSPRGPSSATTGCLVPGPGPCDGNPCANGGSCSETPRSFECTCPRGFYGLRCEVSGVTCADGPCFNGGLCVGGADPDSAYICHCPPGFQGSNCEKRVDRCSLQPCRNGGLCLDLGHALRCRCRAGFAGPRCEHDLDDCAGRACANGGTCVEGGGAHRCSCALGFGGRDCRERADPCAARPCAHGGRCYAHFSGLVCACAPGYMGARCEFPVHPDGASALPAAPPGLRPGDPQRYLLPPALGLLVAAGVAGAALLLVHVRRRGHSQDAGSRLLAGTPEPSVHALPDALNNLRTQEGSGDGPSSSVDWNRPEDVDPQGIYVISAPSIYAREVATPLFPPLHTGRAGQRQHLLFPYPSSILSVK

[2] = test system: hDLL3-MC38 tumor model; assay: Biodistribution of radio-labelled DARPin conjugates in hDLL3-MC38 tumor model; assay type: in vivo, mouse; conditions: Pb-212 DOTAM conjugate 0.01 mg/kg (10 μCi) i.v., s.c. hDLL3-MC38
Text: hDLL3-MC38 tumor model. ATH mice were purchased from Envigo. General handling and maintenance of mice was done as described above for the NCI-H82 tumor model. hDLL3-MC38 cells were purchased from Biocytogen (Catalog No. 311448). […] Cells were quantified using Countess cell counter.
Biodistribution study. […] Based on immunohistochemistry analyses, the hDLL3-MC38 tumors have a higher level of human DLL3 expression than the NCI-H82 tumors described in Example 3 (data not shown). Biodistribution was monitored at 1 h, 4 h and 24h post-injection. Mice were euthanized by CO2 inhalation and cervical dislocation.
Mice were euthanized by CO2 inhalation and cervical dislocation.

[3] = molecular target: T2, human DLL3 (Homo sapiens, UniProt Q9NYJ7); assay: SPR multi-trace analysis, binding to human DLL3 (Example 1); conditions: immobilized bio-DLL3 (hDLL3 ECD), PBS pH 7.4, 1:1 Langmuir, Table 1
T2 construct: (Q9NYJ7, Gene ID: 10683, residues 27 to 466; purchased from Evitria); 3C protease recognition site (C); Fc knob into hole (C); purchased Evitria
T2 sequence (Q9NYJ7 27-466): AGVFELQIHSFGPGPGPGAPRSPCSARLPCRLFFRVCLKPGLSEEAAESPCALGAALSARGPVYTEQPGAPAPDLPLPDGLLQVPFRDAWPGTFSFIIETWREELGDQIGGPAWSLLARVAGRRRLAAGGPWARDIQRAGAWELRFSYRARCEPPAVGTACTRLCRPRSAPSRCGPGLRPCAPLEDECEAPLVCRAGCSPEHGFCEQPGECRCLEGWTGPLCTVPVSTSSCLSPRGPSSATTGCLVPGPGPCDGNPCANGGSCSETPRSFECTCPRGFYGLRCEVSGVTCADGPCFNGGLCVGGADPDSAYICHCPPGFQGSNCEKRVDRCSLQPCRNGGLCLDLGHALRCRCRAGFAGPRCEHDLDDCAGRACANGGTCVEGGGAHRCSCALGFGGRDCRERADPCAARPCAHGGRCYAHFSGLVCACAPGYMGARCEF
Procedure: Kinetic binding parameters and binding affinities of two domain (2D) ankyrin repeat proteins comprising an ankyrin repeat domain with binding specificity for DLL3 and an ankyrin repeat domain with binding specificity for serum albumin were determined by surface plasmon resonance (SPR) multi-trace analysis.
In brief, a SPR assay was used to determine the binding kinetics to the target human DLL3. The data were generated using BioRad ProteOn instrument in SPR running buffer (PBS, pH 7.4 containing 0.005% Tween 20®). […] The chip was coated with biotinylated target (bio-DLL3) to reach a signal intensity of 1780 RU. All analytes (3-fold dilution ranging from 300-33.3 nM) were injected in succession for 240 s (100 μl/min) and dissociation was recorded for 10800 s (100 μl/min). Each injection was followed by a regeneration step with 16 mM H3PO4 for 18 s. […] The bio-DLL3 target used was as described in U.S. 63/550,951, i.e. the extracellular domain (ECD) of human DLL3 protein (Q9NYJ7, Gene ID: 10683, residues 27 to 466; purchased from Evitria) linked via an Avi-tag (for site-directed biotinylation), followed by a 3C protease recognition site, to a Fc knob into hole (hDLL3 ECD-Avi-Fckih).

[4] = Thermal stability by Circular Dichroism (CD) spectroscopy; assay type: physicochemical; conditions: CD at 222 nm, 20° C. to 90° C., 2 μM in PBS pH7.4; DARPins with C-terminal Cysteine-containing tag (SEQ ID NOs: 15, 16, 18)
Procedure: Labelling of proteins conjugated to a chelator with a radionuclide may require harsh conditions, including high temperatures. The thermal stability and the propensity to unfold/refold of 2D DARPins MAM279, MAM283 and MAM282 were assessed using Circular Dichroism (CD) spectroscopy.
Samples of the DARPins were diluted to 2 μM in PBS, pH7.4. The assessment was done using a Jasco J-815 spectrophotometer. The Tm (melting temperature) of the selected proteins was determined by CD as a parameter for thermal stability. In brief, the ellipticity was recorded at […] and a temperature range from 20° C. to 90° C. was applied followed by reverse scan to record the refolding behavior. The Tm of the selected ankyrin repeat protein constructs is the midpoint of the protein unfolding. Spectra from 190-250 nm were recorded before and after the temperature scan.

[5] = athymic nude mice, 4 h, Example 7
[6] = athymic nude mice, 24 h, Example 7
[7] = athymic nude mice, 24 h, Example 9
[8] = athymic nude mice, 4 h, Example 9

B1: Rova: Rova antibody, DLL3-binding benchmark antibody used as positive control and comparison (antibody, chains of the INN, looked up, V domains shown)
VH: QVQLVQSGAEVKKPGASVKVSCKASGYTFTNYGMNWVRQAPGQGLEWMGWINTYTGEPTYADDFKGRVTMTTDTSTSTAYMELRSLRSDDTAVYYCARIGDSSPSDYWGQGTLVTVSS
VL: EIVMTQSPATLSVSPGERATLSCKASQSVSNDVVWYQQKPGQAPRLLIYYASNRYTGIPARFSGSGSGTEFTLTISSLQSEDFAVYYCQQDYTSPWTFGQGTKLEIK
[1]
  EC50: 0.3 nM

B2: MAM160: Two domain (2D) ankyrin repeat protein: serum albumin-specific domain (SEQ ID NO: 7), PT linker, DLL3-specific domain MAM120 (protein)
chain: DLGKKLLEAARAGQDDEVRELLKAGADVNAKDYFSHTPLHLAARNGHLKIVEVLLKAGADVNAKDFAGKTPLHLAADAGHLEIVEVLLKAGADVNAQDIFGKTPADIAADAGHEDIAEVLQKAAGSPTPTPTTPTPTPTTPTPTPTGSDLGTKLLSAAADGQDDEVRELLQAGADVNAKDLFGYTPLHLAAWRGHLEIVEVLLEAGADVNAKDAAGLTPLHLAAWFGHLEIVEVLLEAGADVNAQDVQGVTPADLAAKEGHEDIAEVLQQAA
modifications: Ankyrin repeat protein (MAM160)
[2]; athymic mice, 1 h, Example 4
  Blood % ID/g: 38 % ID/g
  Kidneys % ID/g: 12 % ID/g
  T:K ratio: 0.58
  Tumors % ID/g: 7 % ID/g
[2]; athymic mice, 4 h, Example 4
  Blood % ID/g: 25 % ID/g
  Kidneys % ID/g: 12 % ID/g
  T:K ratio: 1.42
  Tumors % ID/g: 17 % ID/g
[2]; athymic mice, 24 h, Example 4
  Blood % ID/g: 3 % ID/g
  Kidneys % ID/g: 17 % ID/g
  T:K ratio: 1.53
  Tumors % ID/g: 26 % ID/g
[2]; [5]
  Blood % ID/g: 17.9 % ID/g
  Kidneys % ID/g: 11.6 % ID/g
  Tumors % ID/g: 18.8 % ID/g
[2]; [6]
  Blood % ID/g: 1.9 % ID/g
  Kidneys % ID/g: 18 % ID/g
  Tumors % ID/g: 28.9 % ID/g
[1]
  EC50: 36.6 nM
[3]
  Kd: 1.99 nM
  koff: 2.01e-05 s⁻¹
  kon: 10100 M⁻¹ s⁻¹

B3: MAM279 conjugate: SEQ ID NO: 15 conjugated to DOTAM-maleimide, labelled with Pb-212 (natural lead in PK studies) (conjugate)
chain: GSDLGKKLLEAARAGQDDEVRELLKAGADVNAKDYFSHTPLHLAARNGHLKIVEVLLKAGADVNAKDFAGKTPLHLAADAGHLEIVEVLLKAGADVNAQDIFGKTPADIAADAGHEDIAEVLQKAAGSPTPTPTTPTPTPTTPTPTPTGSDLGKKLLAAAAQGQDDEVRELLKAGANVNAKDLFGYTPLHLAAWRGHLEIVEVLLKAGADVNAKDAAGETPLHLAAWFGHLEIVEVLLKAGADVNAQDLQGKTPADLAAKEGHEDIAEVLQKAAGSGSC
modifications: DOTAM-maleimide, Pb-212 label; Ankyrin repeat protein with tag (GS-MAM279-tag)
[2]; [7]
  T:K ratio: above 1

B4: MAM279: Two domain (2D) ankyrin repeat protein: serum albumin-specific domain (SEQ ID NO: 7), PT linker, DLL3-specific domain of MAM093 (protein)
chain: DLGKKLLEAARAGQDDEVRELLKAGADVNAKDYFSHTPLHLAARNGHLKIVEVLLKAGADVNAKDFAGKTPLHLAADAGHLEIVEVLLKAGADVNAQDIFGKTPADIAADAGHEDIAEVLQKAAGSPTPTPTTPTPTPTTPTPTPTGSDLGKKLLAAAAQGQDDEVRELLKAGANVNAKDLFGYTPLHLAAWRGHLEIVEVLLKAGADVNAKDAAGETPLHLAAWFGHLEIVEVLLKAGADVNAQDLQGKTPADLAAKEGHEDIAEVLQKAA
modifications: Ankyrin repeat protein (MAM279)
[2]; [5]
  Blood % ID/g: 21.2 % ID/g
  Kidneys % ID/g: 14.3 % ID/g
  Tumors % ID/g: 20.6 % ID/g
[2]; [8]
  Blood % ID/g: 21 % ID/g
  Kidneys % ID/g: 14 % ID/g
  T:K ratio: 1.5
  Tumors % ID/g: 21 % ID/g
[2]; [6]
  Blood % ID/g: 8.1 % ID/g
  Kidneys % ID/g: 23.3 % ID/g
  Tumors % ID/g: 57.6 % ID/g
[2]; [7]
  Blood % ID/g: 8 % ID/g
  Kidneys % ID/g: 23 % ID/g
  T:K ratio: 2.5
  Tumors % ID/g: 58 % ID/g
[1]
  EC50: 16.3 nM
[3]
  Kd: 0.616 nM
  koff: 1.44e-05 s⁻¹
  kon: 23300 M⁻¹ s⁻¹
[4]
  melting temperature (Tm): above 85 °C

B5: MAM283: Two domain (2D) ankyrin repeat protein: serum albumin-specific domain (SEQ ID NO: 7), PT linker, DLL3-specific domain (SEQ ID NO: 3) (protein)
chain: B2 chain with T152K, S156A, L217E, V250K
modifications: Ankyrin repeat protein (MAM283)
[2]; [5]
  Blood % ID/g: 21.1 % ID/g
  Kidneys % ID/g: 16.9 % ID/g
  Tumors % ID/g: 22.5 % ID/g
[2]; [6]
  Blood % ID/g: 0.8 % ID/g
  Kidneys % ID/g: 26.8 % ID/g
  Tumors % ID/g: 45.5 % ID/g
[1]
  EC50: 18.4 nM
[3]
  Kd: 0.953 nM
  koff: 1.79e-05 s⁻¹
  kon: 18800 M⁻¹ s⁻¹
[4]
  melting temperature (Tm): about 82 °C
